This assay has as its target T1, Acro SARS-CoV-2 (COVID-19) S1 protein (SARS-CoV-2, UniProt P0DTC2 16-685).
T1 construct: also called SARS-CoV-2 S1
The assay is described as follows: SPR.

From patent US20210355194A1 (TWIST BIOSCIENCE, published 2021) come the findings set out here.

B1: variant 6-49 (Fc fusion)
VHH: EVQLVESGGGLVQPGGSLRLSCAASGSTVLINAMGWFRQAPGKEREFVAAISWSPGRTDYADSVKGRFTISADNSKNTAYLQMNSLKPEDTAVYYCARDCSGGSCYSGDYWGQGTLVTVSS
In turn, B1 had a dissociation constant (Kd) of 58.2 nM.

B2: variant 6-52 (Fc fusion)
VHH: EVQLVESGGGLVQPGGSLRLSCAASGDTYGSYWMGWFRQAPGKEREVVAAITSGGSTVYADSVKGRFTISADNSKNTAYLQMNSLKPEDTAVYYCARVDSRFDYWGQGTLVTVSS
B2 gave a Kd of 31.2 nM. This Kd is about 1.9-fold lower than that of the molecule before.

B3: variant 6-43 (Fc fusion)
VHH: EVQLVESGGGLVQPGGSLRLSCAASGRTFSSYAMMGWFRQAPGKEREFVASVNWDASQINYADSVKGRFTISADNSKNTAYLQMNSLKPEDTAVYYCTTLGAVYFDSSGYHDYFDYWGQGTLVTVSS
Consider B3, for which binding was put at a Kd of 17.9 nM.

B4: variant 6-68 (Fc fusion)
VHH: EVQLVESGGGLVQPGGSLRLSCAASGFTLSDRAMGWFRQAPGKEREYVAHITAGGLSNYADSVKGRFTISADNSKNTAYLQMNSLKPEDTAVYYCVHLASQTGAGYFDLWGQGTLVTVSS
Take B4: the dissociation constant (Kd) amounted to 102 nM. Against the preceding molecule, the Kd is about 5.7-fold higher.

B5: variant 6-67 (Fc fusion)
VHH: EVQLVESGGGLVQPGGSLRLSCAASGSFSNYAMGWFRQAPGKEREFVAAISSSGALTSYADSVKGRFTISADNSKNTAYLQMNSLKPEDTAVYYCWIVGPGPLDGMDVWGQGTLVTVSS
Regarding B5, the Kd turned out to be 55.6 nM.

B6: variant 6-54 (Fc fusion)
VHH: EVQLVESGGGLVQPGGSLRLSCAASGFEFENHWMGWFRQAPGKEREYVAHITAGGLSNYADSVKGRFTISADNSKNTAYLQMNSLKPEDTAVYYCGRHWGIYDSSGFSSFDYWGQGTLVTVSS
The molecule B6 displayed a Kd of 144 nM. This Kd lies about 2.6-fold higher than the previous one.

B7: variant 6-66 (Fc fusion)
VHH: EVQLVESGGGLVQPGGSLRLSCAASGLTFSLFAMGWFRQAPGKERELVAAISSGGSTDYADSVKGRFTISADNSKNTAYLQMNSLKPEDTAVYYCARGNTKYYYDSSGYSSAFDYWGQGTLVTVSS
B7: the Kd turned out to be 293 nM.

B8: variant 6-39 (Fc fusion)
VHH: EVQLVESGGGLVQPGGSLRLSCAASGFTFSPSWMGWFRQAPGKEREFVAAISWSGGSTAYADSVKGRFTISADNSKNTAYLQMNSLKPEDTAVYYCHGLGEGDPYGDYEGYFDLWGQGTLVTVSS
Regarding B8, binding was characterised by a dissociation constant (Kd) of 11.3 nM. This Kd lies about 26-fold lower than the previous one.

B9: variant 6-71 (Fc fusion)
VHH: EVQLVESGGGLVQPGGSLRLSCAASGITFSNDAMGWFRQAPGKEREFVAIITSSDTNDTTNYADSVKGRFTISADNSKNTAYLQMNSLKPEDTAVYYCARLHYYDSSGYFDYWGQGTLVTVSS
Regarding B9, the dissociation constant (Kd) amounted to 155 nM.

B10: variant 6-62 (Fc fusion)
VHH: EVQLVESGGGLVQPGGSLRLSCAASGSTFSGNWMGWFRQAPGKEREFVAVISWTGGSTYYADSVKGRFTISADNSKNTAYLQMNSLKPEDTAVYYCATHNSLSGFDYWGQGTLVTVSS
Consider B10, for which the Kd was found to be 151 nM.

B11: variant 6-45 (Fc fusion)
VHH: EVQLVESGGGLVQPGGSLRLSCAASGNMFSINAMGWFRQAPGKEREFVTLISWSSGRTSYADSVKGRFTISADNSKNTAYLQMNSLKPEDTAVYYCASLGYCSGGSCFDYWGQGTLVTVSS
As for B11, the Kd came out at 17.5 nM.

B12: variant 6-47 (Fc fusion)
VHH: EVQLVESGGGLVQPGGSLRLSCAASGRTFSMHAMGWFRQAPGKERELVASITYGGNINYADSVKGRFTISADNSKNTAYLQMNSLKPEDTAVYYCAKEGYYDSTGYRTYFQQWGQGTLVTVSS
B12 displayed a dissociation constant Kd of 43.9 nM.

B13: variant 6-57 (Fc fusion)
VHH: EVQLVESGGGLVQPGGSLRLSCAASGLTFDDHSMGWFRQAPGKEREFVAAVPLSGNTYYADSVKGRFTISADNSKNTAYLQMNSLKPEDTAVYYCASFSGGPADFDYWGQGTLVTVSS
B13 yielded a Kd of 205 nM.

B14: variant 6-41 (Fc fusion)
VHH: EVQLVESGGGLVQPGGSLRLSCAASGFTFSTSWMGWFRQAPGKEREFVASINEYGGRNYADSVKGRFTISADNSKNTAYLQMNSLKPEDTAVYYCAGLHYYYDSSGYNPTEYYGMDVWGQGTLVTVSS
The molecule B14 had an equilibrium dissociation constant (Kd) of 51.5 nM.

B15: variant 6-53 (Fc fusion)
VHH: EVQLVESGGGLVQPGGSLRLSCAASGISINTNVMGWFRQAPGKEREFVAAISTGSVTIYADSVKGRFTISADNSKNTAYLQMNSLKPEDTAVYYCARVDDFGYFDLWGQGTLVTVSS
Turning to B15, binding was characterised by a dissociation constant (Kd) of 140 nM.

B16: variant 6-65 (Fc fusion)
VHH: EVQLVESGGGLVQPGGSLRLSCAASGLPFSTLHMGWFRQAPGKEREFVASLSIFGATGYADSVKGRFTISADNSKNTAYLQMNSLKPEDTAVYYCWMYYYDSSGYYGNYYYGMDVWGQGTLVTVSS
B16 registered a dissociation constant (Kd) of 890 nM. This Kd lies about 6.4-fold higher than the previous one.

B17: variant 6-42 (Fc fusion)
VHH: EVQLVESGGGLVQPGGSLRLSCAASGDTYGSYWMGWFRQAPGKEREFVAVITSGGSTNYADSVKGRFTISADNSKNTAYLQMNSLKPEDTAVYYCTHVQNSYYYAMDVWGQGTLVTVSS
For the molecule B17, the Kd is 10.1 nM. This Kd is about 88-fold lower than that of the molecule before.

B18: variant 6-70 (Fc fusion)
VHH: EVQLVESGGGLVQPGGSLRLSCAASGFNLDDYADMGWFRQAPGKEREFVAAIGWGGGSTRYADSVKGRFTISADNSKNTAYLQMNSLKPEDTAVYYCAREILWFGEFGEPNVWGQGTLVTVSS
In turn, B18 registered a Kd of 35.9 nM.

B19: variant 6-38 (Fc fusion)
VHH: EVQLVESGGGLVQPGGSLRLSCAASGNTFSGGFMGWFRQAPGKEREFVAVISSLSSKSYADSVKGRFTISADNSKNTAYLQMNSLKPEDTAVYYCAKVDSGYDYWGQGTLVTVSS
B19 yielded an equilibrium dissociation constant (Kd) of 26.6 nM.

B20: variant 6-63 (Fc fusion)
VHH: EVQLVESGGGLVQPGGSLRLSCAASGQTFNMGWFRQAPGKEREFVAAIGSGGSTSYADSVKGRFTISADNSKNTAYLQMNSLKPEDTAVYYCWRLGNDYFDYWGQGTLVTVSS
notes: VHH-Fc
Consider B20, for which the affinity, expressed as Kd, was 21.8 nM.

B21: variant 6-51 (Fc fusion)
VHH: EVQLVESGGGLVQPGGSLRLSCAASGYTYSSYVMGWFRQAPGKEREFVAAISRFGSTYYADSVKGRFTISADNSKNTAYLQMNSLKPEDTAVYYCARDSGEHFWDSGYIDHWGQGTLVTVSS
Consider B21, for which the dissociation constant Kd came to 35.2 nM.

B22: variant 6-46 (Fc fusion)
VHH: EVQLVESGGGLVQPGGSLRLSCAASGLTFSAMGWFRQAPGKEREFVALIRRDGSTIYADSVKGRFTISADNSKNTAYLQMNSLKPEDTAVYYCAALGILFGYDAFDIWGQGTLVTVSS
Consider B22, for which the Kd was determined as 18.1 nM.

B23: variant 6-44 (Fc fusion)
VHH: EVQLVESGGGLVQPGGSLRLSCAASGGTFGVYHMGWFRQAPGKEREFIGRITWTDGSTYYADSVKGRFTISADNSKNTAYLQMNSLKPEDTAVYYCFGLLEVYDMTFDYWGQGTLVTVSS
In the case of B23, the Kd is 8.2 nM.

B24: variant 6-40 (Fc fusion)
VHH: EVQLVESGGGLVQPGGSLRLSCAASGFTFSDYWMGWFRQAPGKERELVARVWWNGGSAYYADSVKGRFTISADNSKNTAYLQMNSLKPEDTAVYYCAREVLRQQVVLDYWGQGTLVTVSS
For the molecule B24, the Kd turned out to be 44.3 nM. This Kd lies about 5.4-fold higher than the previous one.
